Measured values: the DeepSol protein solubility set

Experiment: soluble on expression in E. coli; label from the status in PepcDB or PDB records

## MGEEKEIRIIVLEDGEHLESVIRKIEKGWIVRFKRGSSLLGKKVKVFTSICPGNSLEWSEGKDHLAVYCQVECKEAGSFRYWFKIEDSEERGSGYFLVMPELKINGKCLPLDGIACQTYLTKLLGPLSEWKERLEVAHQTGYNMIHLTPIHELGISNSSYSLSDHHSLIKTIQSQDQKFGFEDVQALVGDLERSWNILTVQDVVWNHAAKNATWLLEHPESAYNCLNSPHLRPAYVIDRVYHEFGKQIGEGVWEHRGVPPVVDNIHHVNAIEYLLRAEVLPKADLHEFYQVDLKAMVNLFEVFIKQSSGPTTNPLDGEDVEIEQDLECRRFGNTVDFERSARIFNRHRGDAKSEEERVEKCVRSFEEALNNKNLEAARESWEVILAGLAAVMGGITYERIADNGPKKGLVSPENPLTTDYFLHLEADLGWKSEEKFAYDPEKSKFLMAFNGWVMSSDPMKNFALKESQVYLRRELVCWGDSVKLNYGNKEADSPFLWQYMKEYTQQAARIFHGLRIDNAHGTPIHVAEKLLKTAREVRPDIYVFAELFTGSEHADNMFVNRLGISSLIREAQSAHDSHEQGRLVYRYGGDCVGAFKQKSARLAPKSIAHGLFLDQSHDNPSPIHTRSPFDILPTAAMLTMASCAVGSNRGYDELIRDHIHVVSEKRPYASWCRPDQVSRSQGIIEGRNLLNKLHTWLAEHGYSQVFVDQMNSDIVGITRHNPRTHETVVVVSHTSFSKNYIDWPGGLKHIPIGGVLENVIFEMKLKKVQEEWGTEDPDVLIGLKNYEMEIRENVNLDNGTMFKVHDGYIELTNFPTGSVVGFKIRPSDEATKAFNMIHNSITPEQSEFDSALSRLTYQSFPNLLFHCESEDYATIQQGGYDVPNFGKFVYCGLQGLVPVLEKIRDDNDLGHPLCQNLRDGTWICDYIVGRLAKFEKLGEVSEAIRKFFAPLDHVPYYLRPCYFELLVSYIYGKIRKEALKRMAPQISSSSALVRHLAISTLSFLGYIPGAGLAPIPTSLQIEDQYPSSLAAGLSHFAVGIWRNWGRDTFIALPGCLLSTGRFQEARQIILSFAGAIRHGLIPNLLAEGIGARYNCRDATWFWLVSIVKYVESAPNGVGILEDPVRRIYPNDDSVYGEGEVQQMLIETIYEALDKHFAGIDYRERSAGPQIDEQMRDEGFQVTAGVSRTTGFIYGGNRWNCGTWMDKMGSSERAGNKGEPATPRDGAAVELQGLAYRALKSLKNWKEQGVIQRSGVSDEWTWGFWAQKIRENFEKEFFVDKDSYAEFVNRREIIKDSVGSTLGFTDFQLRCNFGIALAVAPDLMDPKKAWKALDSAEVLLGPLGMKTLDPTDWAYNGYYNNDDDGTDKKTAKGWNYHQGPEWLFVAGYYLQARLRIGDILGGSEKQYAIRQVQERLGNAYKHIISSPWRSLPELTNADGEYCMQSCAAQAWSVGCLIEACVKLNTIEG
  soluble on expression in E. coli: not soluble

## MIALDQHLTEHKKDITQQWLEVCTSNGSWLYSAKDQQKLGQKLKDQHELLVTIVAKSLRKEDVEDELNRWSLQCARDRAVHEVTVTQSFGQFNTFRHIMFEWIHKFSEASSQDISIQEFYEWSRILNQNIDEIIEVFTEEYHQVTMIQLNAQKEMINELSAPIMPITDGIGILPLVGEIDTHRARTILESVLEQCSALKLSYLFLDISGVPIVDTMVAYQIFKVIDSTKLLGIETIISGIRPEIAQTVVKLGLDFSNVKTEQSLAKALANKGFKIKEC
  soluble on expression in E. coli: not soluble

## VTMKEASAREIDEVVITGTGAQKKLTVTGAITNVDVDVLKANPSGSMANALAGNVPGILAMQTSGKPGSVSEFWIRGISTFGASNSALVLVDGFERSLDEINVEDVESFSVLKDASATAIYGSKGANGVVLITTKHGKAGK
  soluble on expression in E. coli: not soluble

## MPGTKQVNVGSLKVGQYVMIDGVPCEIVDISVSKPGKHGGAKARVVGIGIFEKVKKEFVAPTSSKVEVPIIDRRKGQVLAIMGDMVQIMDLQTYETLELPIPEGIEGLEPGGEVEYIEAVGQYKITRVIGGK
  soluble on expression in E. coli: soluble

## MIKSALLVLEDGTQFHGRAIGATGSAVGEVVFNTSMTGYQEILTDPSYSRQIVTLTYPHIGNVGTNDADEESSQVHAQGLVIRDLPLIASNFRNTEDLSSYLKRHNIVAIADIDTRKLTRLLREKGAQNGCIIAGDNPDAALALEKARAFPGLNGMDLAKEVTTAEAYSWTQGSWTLTGGLPEAKKEDELPFHVVAYDFGAKRNILRMLVDRGCRLTIVPAQTSAEDVLKMNPDGIFLSNGPGDPAPDDYAITAIQKFLETDIPVFGICLGHQLLALASGAKTVKMKFGHHGGNHPVKDVEKNVVMITAQNHGFAVDEATLPANLRVTHKSLFDGTLQGIHRTDKPAFSFQGHPEASPGPHDAAPLFDHFIELIEQYRKTAK
  soluble on expression in E. coli: soluble

## MKFGPIAIEEAEGAVLAHSTTAGEKRFRKAHRLSAEDISVLKRAGIVQVVAAVLSPDDLGEDAAAQRIAESMRFSGIEARPAATGRVNLHAKASGIFTVDAAMIDAINAVDPAITLATLAQHAPVEKGQMVATVKIIPFAVASTLVDTVVKICAGGEILAVNAYQPVRVGVIQTVLPGIKPSVLDKTLRVTEARLARSGGRLTAERRTPHEIAPVAEAAASLARDNDLVVIFGASAMSDFADVVPAAIERAGGTVVRAGMPVDPGNLLVLGTLGGKRIIGAPGCARSPKENGFDWVLDRLVAGLDVTAKDIAGMGVGGLLMEIPTRPQPREPLPAKSRLKVGIVLLAAGRSSRMGGPNKLLALFDGKPLVRRTAERALGSKASGTIVVTGHQRERVRAALSGLDVTFADNPDFANGLSTSLKAGIAYLPEDTAGAMIVLGDMPGVVSGDLDRLIDAFRKAGGNSVVRASHQGKRGNPVLLPRALFPAIAHLEGDTGARHLVEAEGLDVVDVEIGEGASVDVDTREALEGAGGVLQDLEHHHHHH
  soluble on expression in E. coli: not soluble

## MGSDKIHHHHHHMKLGYCSITWGGVVGHPGGVTSVKDLFYLTHGSMKDAIHDIASVGYEGVEMFDGNLAEYADKPEVLKELLNSSGVSLTSVYTGANFIYADILPDELHRIHRSAELAANFGADRLVVGGGARRAAGTTDEDYHRLGRALDSVTDIAESFGLSASYHPHLTTIVESPDELDKLMPLTRIGFCPDTAHLAAGGADPAAVIRKYPDRIRHVHLKDFRQDPFTFLPLGQGELDFPDILAAIRESGYDSWLMVELDNYDGDPREAAELSMKYLEKLL
  soluble on expression in E. coli: not soluble

## MHHHHHHSSGVDLGTENLYFQSMGNKYIQQTKPLTLERTINLYPLTNYTFGTKEPLYEKDSSVAARFQRMREEFDKIGMRRTVEGVLIVHEHRLPHVLLLQLGTTFFKLPGGELNPGEDEVEGLKRLMTEILGRQDGVLQDWVIDDCIGNWWRPNFEPPQYPYIPAHITKPKEHKKLFLVQLQEKALFAVPKNYKLVAAPLFELYDNAPGYGPIISSLPQLLSRFNFIYN
  soluble on expression in E. coli: soluble

## MTMQHASSAGRRPAVPVYLKIRNAIRDAISNAAYAPGDLLPSETELAKRYATTRATVVHAIQQLVFEGLVERKRGVGSFVAQPKLSSTVDTHRVAYFEQDAFARDLTYEVIGYGKAVVEDHVRDTLRLGRGEPVYRLQRLRLLLGKPIAFELRYLPALVGARLTAEMLARRSVQSLLDEEVGMPITRFLNAVRVALVPAAVARHLQLEKGRPVMVRTHTFLDAADTPLLWGETLYREEYQINYVLTAMQAPDEAVGGRPRKGAGRA
  soluble on expression in E. coli: not soluble

## SNIEALADKVRTYLEAGQIDGFVRTLRARPEAGGKVPVFVFHPAGGSTVVYEPLLGRLPADTPMYGFERVEGSIEERAQQYVPKLIEMQGDGPYVLVGWSLGGVLAYACAIGLRRLGKDVRFVGLIDAVRAGEEIPQTKEEIRKRWDRYAAFAEKTFNVTIPAIPYEQLEELDDEGQVRFVLDAVSQSGVQIPAGIIEHQRTSYLDNRAIDTAQIQPYDGHVTLYMADRYHDDAIMFEPRYAVRQPDGGWGEYVSDLEVVPIGGEHIQAIDEPIIAKVGEHMSRA
  soluble on expression in E. coli: soluble

## MHHHHHHLTKVFGSRNDRTLRRMRKVVNIINAMEPEMEKLSDEELKGKTAEFRARLEKGEVLENLIPEAFAVVREASKRVFGMRHFDVQLLGGMVLNERCIAEMRTGEGKTLTATLPAYLNALTGKGVHVVTVNDYLAQRDAENNRPLFEFLGLTVGINLPGMPAPAKREAYAADITYGTNNEYGFDYLRDNMAFSPEERVQRKLHYALVDEVDSILIDEARTPLIISGANQTLASITFQNYFRLYEKLAGMTGTADTEAFEFSSIYKLDTVVVPTNRPMIRKDLPDLVYMTEAEKIQAIIEDIKERTAKGQPVLVGTISIEKSELVSNELTKAGIKHNVLNAKFHANEAAIVAQAGYPAAVTIATNMAGRGTDIVLGGSWQAEVAALENPTAEQIEKIKADWQVRHDAVLEAGGLHIIGTERHESRRIDNQLRGRSGRQGDAGSSRFYLSMEDALMRIFASDRVSGMMRK
  soluble on expression in E. coli: soluble

## MSLKYSSTTADYLVWSDAMNLIRKLAKDENYKISLLIALGCFTGLRISDILSLRWKQILDADEFTVIEKKTDKVRTIRLNPQLQHHIKECYEHINPVGINAPILISQKGTIFTVQRINIILKEVKKKYRLKIKNFSCHSLRKTFGRQVYNMNSDNAELALVKLMELFNHSSVAITKRYLGLRQEEILQTYDCLSF
  soluble on expression in E. coli: not soluble

## MHHHHHHSSGRENLYFQGSSESVRVVVRCRPMNGKEKAASYDKVVDVDVKLGQVSVKNPKGTAHEMPKTFTFDAVYDWNAKQFELYDETFRPLVDSVLQGFNGTIFAYGQTGTGKTYTMEGIRGDPEKRGVIPNSFDHIFTHISRSQNQQYLVRASYLEIYQEEIRDLLSKDQTKRLELKERPDTGVYVKDLSSFVTKSVKEIEHVMNVGNQNRSVGATNMNEHSSRSHAIFVITIECSEVGLDGENHIRVGKLNLVDLAGSERQAKTGAQGERLKEATKINLSLSALGNVISALVDGKSTHIPYRDSKLTRLLQDSLGGNAKTVMVANVGPASYNVEETLTTLRYANRAKNIKNKPRVNEDPKDALLREFQ
  soluble on expression in E. coli: soluble

## MTESVFAVVVTHRRPDELAKSLDVLTAQTRLPDHLIVVDNDGCGDSPVRELVAGQPIATTYLGSRRNLGGAGGFALGMLHALAQGADWVWLADDDGHAQDARVLATLLACAEKYSLAEVSPMVCNIDDPTRLAFPLRRGLVWRRRASELRTEAGQELLPGIASLFNGALFRASTLAAIGVPDLRLFIRGDEVEMHRRLIRSGLPFGTCLDAAYLHPCGSDEFKPILCGRMHAQYPDDPGKRFFTYRNRGYVLSQPGLRKLLAQEWLRFGWFFLVTRRDPKGLWEWIRLRRLGRREKFGKPGGSA
  soluble on expression in E. coli: soluble

## MKKLIIATVLASISLSASAAETIRFAAEATYPPFEFIDANNKMQGFDIDLANALCKEMQADCTFTNQAFDSLIPSLKFKRFDAVISGMDITPERQKQVAFTQPYYDNSALFIAQKDKVADLAALKGKRVGMQNGSTHQKYLMEKHPEITAVPYDSYQNAILDLKNGRLDAVFGDTAVVNEWLKQNDQLAAVGDKVTDADYFGTGLGIAVRQSNTELQGKLDAALTKVKADGTYQTIYKKWFQQ
  soluble on expression in E. coli: not soluble

## MKLKHLDKLLAHCHRRRYTAKSTIIYAGDRCETLFFIIKGSVTILIEDDDGREMIIGYLNSGDFFGELGLFEKEGSEQERSAWVRAKVECEVAEISYAKFRELSQQDSEILYTLGSQMADRLRKTTRKVGDLAFLDVTGRVARTLLDLCQQPDAMTHPDGMQIKITRQEIGRIVGCSREMVGRVLKSLEEQGLVHVKGKTMVVFGTR
  soluble on expression in E. coli: soluble

## MGSDKIHHHHHHMWCRNLTVRYPDQDRDVLNDLTVSLRQGETTLLIGPSGSGKTTFLHTLAGLMPETIEAEVTGEWRADGTVGMLFQQPDDQFCMQTVGAEIAFSLENRSIPRDEMEERIRTVLKRVGLDLALTTQIAGLSGGMKQRLALACVLALEPDILLLDEPTAQLDPHGRRLMMELIEELHHNPNVTLVLIEHQLEECVTFADRVLVFREGQLRLDGSPLDVFEEKREDLTRHGIMCPLLYPYTLETIPLTIATARFLDGPPVARRPVANETTLDLTDVTIAHGKRMILDQISLTASAGEWIMLVGRNGAGKSTLLETLAKLLPAQSGTIKLFQTPLKKWRDRTFYRQVGFVFQQPEFQFLKQTVADELAISSPSPARSQVADALQHYRLEDVAAQSPLALSLGQKRRLSVATMLLERKAVLLLDEPTFGQDAETTAQILDVLHQAREAGTTLIMVTHDMELVYRYADRVVVIGEKHVQFDGAPDELFRNESLLEHNQLIRPVSVRYQQLEEVKHRAGKQFVARTP
  soluble on expression in E. coli: not soluble
